# Reference: PMC4558008, “Yeast Mitochondrial Transcription Factor Mtf1 Determines the Precision of Promoter-Directed Initiation of RNA Polymerase Rpo41” (PLoS ONE, 2015)
# B1: Rpo41 ΔN393 (N-terminal 393 residues removed, 958 aa) (domain or fragment, yeast, UniProt P13433 394-1351, looked up)
# chain: SLPTLEEKKAFESALNIFNQDRQKVLENRATEAARERWKHDFEEAKARGDISIEKNLNVKLWKWYNEMLPLVKEEINHCRSLLSEKLSDKKGLNKVDTNRLGYGPYLTLIDPGKMCVITILELLKLNSTGGVIEGMRTARAVISVGKAIEMEFRSEQVLKSESQAFRDVNKKSPEFKKLVQNAKSVFRSSQIEQSKILWPQSIRARIGSVLISMLIQVAKVSVQGVDPVTKAKVHGEAPAFAHGYQYHNGSKLGVLKIHKTLIRQLNGERLIASVQPQLLPMLVEPKPWVNWRSGGYHYTQSTLLRTKDSPEQVAYLKAASDNGDIDRVYDGLNVLGRTPWTVNRKVFDVVSQVWNKGEGFLDIPGAQDEMVLPPAPPKNSDPSILRAWKLQVKTIANKFSSDRSNRCDTNYKLEIARAFLGEKLYFPHNLDFRGRAYPLSPHFNHLGNDMSRGLLIFWHGKKLGPSGLKWLKIHLSNLFGFDKLPLKDRVAFTESHLQDIKDSAENPLTGDRWWTTADKPWQALATCFELNEVMKMDNPEEFISHQPVHQDGTCNGLQHYAALGGDVEGATQVNLVPSDKPQDVYAHVARLVQKRLEIAAEKGDENAKILKDKITRKVVKQTVMTNVYGVTYVGATFQIAKQLSPIFDDRKESLDFSKYLTKHVFSAIRELFHSAHLIQDWLGESAKRISKSIRLDVDEKSFKNGNKPDFMSSVIWTTPLGLPIVQPYREESKKQVETNLQTVFISDPFAVNPVNARRQKAGLPPNFIHSLDASHMLLSAAECGKQGLDFASVHDSYWTHASDIDTMNVVLREQFIKLHEVDLVLRLKEEFDQRYKNYVKIGKLKRSTDLAQKIIRIRKDLSRKLGRSTTLADEIYFEKKRQELLNSPLIEDRNVGEKMVTTVSLFEDITDLDALELENGGDENSGMSVLLPLRLPEIPPKGDFDVTVLRNSQYFFS
# notes: printed length 958 aa (theoretical 111 kDa); source: E. coli Rosetta cells, purified (same method as His-Rpo41: Ni-NTA, Superdex 200 gel filtration)
# B2: Yeast mitochondrial RNA polymerase Rpo41, wild-type (His-Rpo41) (enzyme)
# chain: MLRPAYKSLVKTSLLQRRLISSKGSKLFKPSPDSTSTILISEDPLVTGSSPTSSTTSGIISSNDFPLFNKNRKDAKSSISYQWKNPSELEFDPFNKSHASAVTSMTRTRDVMQLWSLLEACLQSNLMKRAFSILESLYLVPEHKQRFIEDYNMYLNSFSKNDPNFPILKMNEKLTNDLETSFKDVNYNDKTLAIMIHHALNFHSTTSSMLLKPIISAYLKMSVNGIREIFSCLDILTISDLNILMNDLKVITPSQLPNSVRPILESLTLSPTPVNNIENEEGLNKVEAENDSKLHKASNASSDSIKKPSLDPLREVSFHGSTEVLSKDAEKLIAVDTIGMRVIRHTLLGLSLTPEQKEQISKFKFDANDNVLKMKPTKNDDNNNSINFFEIYNSLPTLEEKKAFESALNIFNQDRQKVLENRATEAARERWKHDFEEAKARGDISIEKNLNVKLWKWYNEMLPLVKEEINHCRSLLSEKLSDKKGLNKVDTNRLGYGPYLTLIDPGKMCVITILELLKLNSTGGVIEGMRTARAVISVGKAIEMEFRSEQVLKSESQAFRDVNKKSPEFKKLVQNAKSVFRSSQIEQSKILWPQSIRARIGSVLISMLIQVAKVSVQGVDPVTKAKVHGEAPAFAHGYQYHNGSKLGVLKIHKTLIRQLNGERLIASVQPQLLPMLVEPKPWVNWRSGGYHYTQSTLLRTKDSPEQVAYLKAASDNGDIDRVYDGLNVLGRTPWTVNRKVFDVVSQVWNKGEGFLDIPGAQDEMVLPPAPPKNSDPSILRAWKLQVKTIANKFSSDRSNRCDTNYKLEIARAFLGEKLYFPHNLDFRGRAYPLSPHFNHLGNDMSRGLLIFWHGKKLGPSGLKWLKIHLSNLFGFDKLPLKDRVAFTESHLQDIKDSAENPLTGDRWWTTADKPWQALATCFELNEVMKMDNPEEFISHQPVHQDGTCNGLQHYAALGGDVEGATQVNLVPSDKPQDVYAHVARLVQKRLEIAAEKGDENAKILKDKITRKVVKQTVMTNVYGVTYVGATFQIAKQLSPIFDDRKESLDFSKYLTKHVFSAIRELFHSAHLIQDWLGESAKRISKSIRLDVDEKSFKNGNKPDFMSSVIWTTPLGLPIVQPYREESKKQVETNLQTVFISDPFAVNPVNARRQKAGLPPNFIHSLDASHMLLSAAECGKQGLDFASVHDSYWTHASDIDTMNVVLREQFIKLHEVDLVLRLKEEFDQRYKNYVKIGKLKRSTDLAQKIIRIRKDLSRKLGRSTTLADEIYFEKKRQELLNSPLIEDRNVGEKMVTTVSLFEDITDLDALELENGGDENSGMSVLLPLRLPEIPPKGDFDVTVLRNSQYFFS
# B3: Yeast mitochondrial transcription factor Mtf1 (His-Mtf1) (natural protein, UniProt P14908 2-341, looked up)
# chain: SVPIPGIKDISKLKFFYGFKYLWNPTVYNKIFDKLDLTKTYKHPEELKVLDLYPGVGIQSAIFYNKYCPRQYSLLEKRSSLYKFLNAKFEGSPLQILKRDPYDWSTYSNLIDEERIFVPEVQSSDHINDKFLTVANVTGEGSEGLIMQWLSCIGNKNWLYRFGKVKMLLWMPSTTARKLLARPGMHSRSKCSVVREAFTDTKLIAISDANELKGFDSQCIEEWDPILFSAAEIWPTKGKPIALVEMDPIDFDFDVDNWDYVTRHLMILKRTPLNTVMDSLGHGGQQYFNSRITDKDLLKKCPIDLTNDEFIYLTKLFMEWPFKPDILMDFVDMYQTEHSG
# notes: Mtf1, yeast mitochondrial transcription factor (theoretical 40 kDa); the printed PCR primers run from the codon after the start methionine (TCT GTT CCA ATC CCT: S V P I P) to the stop codon; Subcloned into pTrcHisC (Invitrogen) between NheI and HindIII; the vector's leader with the His tag precedes the protein; source: E. coli Rosetta cells, purified
# Assays:
# [1] = molecular target: B3; assay: cell-based or functional assay
# [2] = molecular target: B3; assay: SEC; analytical gel filtration (Superdex), 1 μM Rpo41 (wild-type or ΔN393), 2 μM Mtf1 and 3 μM 20 bp duplex DNA with the 14S rRNA promoter; peak fractions on SDS-PAGE with densitometry; apparent Kd in the presence of DNA; 40 mM Tris-HCl pH 7.9, 150 mM NaCl, 0.1% Tween 20, 15% glycerol, 1 mM EDTA, 1 mM DTT; details: both partners purified
# [3] = molecular target: B3; assay: SEC; analytical gel filtration (Superdex), 2.8 μM Rpo41 (wild-type or ΔN393) with 5.6 μM Mtf1, no DNA; peak fractions on SDS-PAGE with densitometry; apparent Kd; 40 mM Tris-HCl pH 7.9, 150 mM NaCl, 0.1% Tween 20, 15% glycerol, 1 mM EDTA, 1 mM DTT; details: both partners purified
# [4] = molecular target: B3; assay: as above; details: both partners purified; remark: listed apart in the source
# [5] = molecular target: B3; assay: SEC; analytical gel filtration (Superdex), 1 μM Rpo41 (wild-type or ΔN393), 2 μM Mtf1 and 3 μM 20 bp duplex DNA with the 14S rRNA promoter; peak fractions on SDS-PAGE with densitometry; apparent Kd in the presence of DNA; 40 mM Tris-HCl pH 7.9, 150 mM NaCl, 0.1% Tween 20, 15% glycerol, 1 mM EDTA, 1 mM DTT; details: both partners purified; remark: listed apart in the source
# [6] = molecular target: B1; assay: SEC; analytical gel filtration (Superdex), 2.8 μM Rpo41 (wild-type or ΔN393) with 5.6 μM Mtf1, no DNA; peak fractions on SDS-PAGE with densitometry; apparent Kd; 40 mM Tris-HCl pH 7.9, 150 mM NaCl, 0.1% Tween 20, 15% glycerol, 1 mM EDTA, 1 mM DTT; details: both partners purified
# [7] = molecular target: B1; assay: SEC; analytical gel filtration (Superdex), 1 μM Rpo41 (wild-type or ΔN393), 2 μM Mtf1 and 3 μM 20 bp duplex DNA with the 14S rRNA promoter; peak fractions on SDS-PAGE with densitometry; apparent Kd in the presence of DNA; 40 mM Tris-HCl pH 7.9, 150 mM NaCl, 0.1% Tween 20, 15% glycerol, 1 mM EDTA, 1 mM DTT; details: both partners purified
binder,measurement,setting,value
B1,"activity of the holoenzyme on the 70 bp linear 14S rRNA promoter template, relative to the wild-type enzyme",[1],20%
same,stoichiometry N,[2],1
B2,stoichiometry N,[3],1
same,Kd,[4],4 µM
same,Kd,[5],0.02 µM
B3,Kd,[6],13 µM
same,Kd,[7],0.6 µM
